Key:
[1] = biological target: human CD40 on cells (tonsillar B cells, immature dendritic cells, Ramos-Blue cells) (human, UniProt P25942 21-277); assay: cell-based or functional assay
[2] = biological target: T1, human-CD40-monomer protein (human, UniProt P25942 21-193, limits assumed); assay: SPR, Ab captured on protein A, hCD40 monomer 500 and 50 nM, 1:1 fit; supernatant
T1 construct: Soluble monomer generated in house, used as SPR analyte; also called hCD40; hCD40-monomer
Experimental: (§1) Titer analysis was performed using Biolayer Interferometry (BLI) on an Octet RED instrument (Fortebio) by capturing antibodies from supernatant using protein A sensor tips and measuring capture response with respect to a standard curve obtained using a control antibody sample. SPR data were obtained by capturing antibodies on a protein A surface and testing the binding of 500 nM and 50 nM injections of human-CD40 analyte, using a BIAcore™ T200 instrument (GE Healthcare). The kinetic data for the two concentrations of hCD40-monomer were fit to a 1:1 Langmuir model, to yield estimates of the kinetic and affinity values for these interactions, and for comparison of the different molecules.

[3] = biological target: T1, human-CD40-monomer protein; assay: SPR, purified Ab captured on protein A, hCD40 monomer 500-3.9 nM, 25 C, 1:1 Langmuir fit
Experimental: (§2) Based on the sequences, titer, and SPR binding data, antibodies were selected for larger scale expression, purification, and further characterization. SPR analysis using purified antibodies was performed by capturing antibodies on a protein A surface, with binding of a 500-3.9 nM (2:1) dilution series of human-CD40 monomer, at either 25° C. or 37° C. in PBS-T pH 7.1 buffer; the titration data was fit to a 1:1 Langmuir model.
(§3) SPR data are fit to a 1:1 Langmuir model using BIAcore™ T200 evaluation software to obtain values for the association rate constant (ka), dissociation rate constant (kd) and dissociation constant (KD).

[4] = biological target: T1, human-CD40-monomer protein; assay: SPR, purified Ab captured on protein A, hCD40 monomer 500-3.9 nM, 37 C, 1:1 Langmuir fit
Experimental: as §2, §3

[5] = biological target: T1, human-CD40-monomer protein; assay: SPR, Ab captured on protein A, 1 uM hCD40 monomer, single concentration, apparent value
Experimental: The CD40 kinetic and affinity data for human-CD40 monomer binding to mouse anti-human CD40 antibodies captured on a protein A sensor chip surface were assessed by SPR. The data shown are for a single concentration of CD40 analyte (1 μM) and are therefore reported as apparent (app) values.

[6] = biological target: T1, human-CD40-monomer protein; assay: SPR, Ab captured on protein A, hCD40 monomer 500 and 50 nM, 1:1 fit; purified
Experimental: as §1

T1 sequence (P25942 21-193 limits assumed): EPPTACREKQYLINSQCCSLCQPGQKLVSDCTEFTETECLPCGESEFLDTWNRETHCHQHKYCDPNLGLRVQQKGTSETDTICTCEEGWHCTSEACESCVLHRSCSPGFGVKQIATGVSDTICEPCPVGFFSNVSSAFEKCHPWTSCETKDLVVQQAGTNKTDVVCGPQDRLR
human CD40 on cells (tonsillar B cells, immature dendritic cells, Ramos-Blue cells), sequence (P25942 21-277 limits assumed): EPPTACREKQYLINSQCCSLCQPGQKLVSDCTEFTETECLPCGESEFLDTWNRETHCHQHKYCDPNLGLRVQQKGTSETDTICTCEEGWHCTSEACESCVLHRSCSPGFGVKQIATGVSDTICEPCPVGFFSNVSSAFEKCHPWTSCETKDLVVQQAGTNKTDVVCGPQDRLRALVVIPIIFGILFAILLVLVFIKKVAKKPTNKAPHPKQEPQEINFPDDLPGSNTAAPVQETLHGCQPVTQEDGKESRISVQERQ

Binder	Kd [2] [nM]	koff [2] [s⁻¹]	kon [2] [M⁻¹ s⁻¹]	Kd [5] [nM]	koff [5] [s⁻¹]	kon [5] [M⁻¹ s⁻¹]	also measured
Y12XX-hz34 (antibody, human IgG1, kappa, V domains shown, Humanized, IgG1-P238K; supernatant sample) VH: QVQLVQSGAEVKKPGSSVKVSCKASGYAFTSYWMHWVRQRPGQGLEWIGYINPTTGYSAYNQKFKDKATLTADKSTSTAYMELNSLRSEDTAVYYCARWDPRPFAYWGQGTLVTVSS VL: EIVMTQSPATLSVSPGERATLSCKASQDVSTAVAWYQQKPGQAPRLLIYSASYRYTGIPARFSGSGSGTEFTLTISSLQSEDFAVYYCQQHYSTPWTFGGGTKVEIKR	7.6	0.0028	370000				
ADX_Y1258.ZZ0-1 (antibody, V domains shown, Mouse anti-human-CD40 antibody) VH: QVQLQQSGAELAKPGSSVKMSCKASGYAFTSYWMHWIKQRPGQGLEWIGFINPTTGYSEYNQKFKDKATLTADKSSSTAYMQLNSLTSEDSAVYFCARWGLPPFAYWGQGTLVTVSA VL: DIVMTQSHKFMSTSVGDRVSITCKASQDVSTAVAWYQQKPGQSPKLLIYSASYRYTGVPDRFTGSGSGTDFTFTISSVQAEDLAVYYCQQHYSTPWTFGGGTKLEIK				7.9	0.00013	17000	
Y1258-hIgG1f (antibody, Purified chimeric antibody, mouse variable regions with human wild-type IgG1f; also called purified chimeric Y1258; Chim-P) heavy: not shown VL: DIVMTQSHKFMSTSVGDRVSITCKASQDVSTAVAWYQQKPGQSPKLLIYSASYRYTGVPDRFTGSGSGTDFTFTISSVQAEDLAVYYCQQHYSTPWTFGGGTKLEIK							Kd [6]: 0.01 nM; koff [6]: 5.9e-07 s⁻¹; kon [6]: 58000 M⁻¹ s⁻¹
ADX_Y1267.ZZ0-1 (antibody, V domains shown, Mouse anti-human-CD40 antibody) VH: QVQLQQPGAELVKPGASVRLSCEASGYSFTSYWMHWVKQRPGQGLEWIGQINPSNGRTQYNEKFKSMATLTVDKSSSTAYIQLNSLTSEDSAVYYCARWGLQPFAYWGQGTLVTVSA VL: DIVMTQSHKFMSTSVGDRVSITCKASQDVSTAVAWYQQKPGQSPKLLIYSASYRYTGVPDRFTGSGSGTDFTFTISSVQAEDLAVYYCLQHYTTPWTFGGGTKLEIK				1.1	0.00041	370000	
Y1268-hIgG1f (antibody, V domains shown, Purified chimeric antibody with human wild-type IgG1f; also called purified chimeric Y1268; Chim-P) VH: QVQLQQPGAELVKPGASVRLSCKASGYAFTSYWMHWVKQRPGQGLEWIGQINPSNGRSQYNEKFKTMATLTVDKSSSTAYIQLSSLTSEDSAVYYCARWGLQPFAYWGQGTLVTVSA VL: DIVMTQSHKFMSTSVGDRVSITCKASQDVSTAVAWYQQKPGQSPKLLIYSASYRYTGVPDRFTGSGSGTDFTFTISSVQAEDLAVYYCQQHYSTPWTFGGGTKLEIK							Kd [6]: 3.2 nM; koff [6]: 0.0013 s⁻¹; kon [6]: 400000 M⁻¹ s⁻¹
Y1262-hIgG1f (antibody, Purified chimeric antibody with human wild-type IgG1f; also called purified chimeric Y1262; Y1632-hIgG1f) heavy: not shown VL: DIVMTQSHKFMSTSVGDRVSITCKASQDVSTAVAWYQQKPGQSPKLLIYSASYRYTGVPDRFTGSGYGTDFTFTISSVQAEDLAVYYCQQHYSTPWTFGGGTKLEIK							Kd [6]: 12 nM; koff [6]: 0.0055 s⁻¹; kon [6]: 480000 M⁻¹ s⁻¹
Y12XX-hz19 (antibody, human IgG1, kappa, V domains shown, Humanized, IgG1-P238K; supernatant sample) VH: QVQLVQSGAEVKKPGSSVKVSCKASGYAFTSYWMHWVRQRPGQGLEWMGYINPTTGYSAYNQKFKDKATLTADKSTSTAYMELSSLRSEDTAVYYCARWDPRPFAYWGQGTLVTVSS VL: DIQMTQSPSFLSASVGDRVTITCKASQDVSTAVAWYQQKPGKAPKLLIYSASYRYTGVPSRFSGSGSGTDFTLTISSLQPEDFATYYCQQHYSTPWTFGGGTKVEIKR	6.2	0.0023	380000				
Y12XX-hz22 (antibody, human IgG1, kappa, V domains shown, Humanized, IgG1-P238K; supernatant sample) VH: QVQLVQSGAEVKKPGSSVKVSCKASGYAFTSYWMHWVRQAPGQGLEWMGYINPTTGYSAYNQKFKDKATLTADKSTSTAYMELSSLRSEDTAVYYCARWDARPFAYWGQGTLVTVSS VL: DIQMTQSPSFLSASVGDRVTITCKASQDVSTAVAWYQQKPGKAPKLLIYSASYRYTGVPSRFSGSGSGTDFTLTISSLQPEDFATYYCQQHYSTPWTFGGGTKVEIKR	210	0.079	370000				
Y12XX-hz20 (antibody, human IgG1, kappa, V domains shown, Humanized, IgG1-P238K; supernatant sample) VH: QVQLVQSGAEVKKPGSSVKVSCKASGYAFTSYWMHWVRQRPGQGLEWIGYINPTTGYSAYNQKFKDKATLTADKSTSTAYMELNSLRSEDTAVYYCARWDPRPFAYWGQGTLVTVSS VL: DIQMTQSPSFLSASVGDRVTITCKASQDVSTAVAWYQQKPGKAPKLLIYSASYRYTGVPSRFSGSGSGTDFTLTISSLQPEDFATYYCQQHYSTPWTFGGGTKVEIKR	8.2	0.0025	310000				
Y12XX-hz6 (antibody, human IgG1, kappa, V domains shown, Humanized, IgG1-P238K; supernatant sample) VH: QVQLVQSGAEVKKPGSSVKVSCKASGYAFTSYWMHWVRQRPGQGLEWIGYINPTTGYSAYNQKFKDKATLTADKSTSTAYMELNSLRSEDTAVYYCARWDPRPFAYWGQGTLVTVSS VL: DIQMTQSPSSLSASVGDRVTITCKASQDVSTAVAWYQQKPGKAPKLLIYSASYRYTGVPSRFSGSGSGTDFTFTISSLQPEDIATYYCQQHYSTPWTFGGGTKVEIKR	6.4	0.0024	380000				

Now from value to binder, other results behind:

Kd [2] [nM]	koff [2] [s⁻¹]	kon [2] [M⁻¹ s⁻¹]	Kd [5] [nM]	koff [5] [s⁻¹]	kon [5] [M⁻¹ s⁻¹]	Binder	also measured
3.5	0.00083	240000				Y12XX-hz42-P238K (antibody, human IgG1, kappa, V domains shown, also called Vh-hz14;Vk-hz3) VH: QVQLVQSGAEVKKPGSSVKVSCKASGYAFTSYWMHWVRQAPGQGLEWMGQINPTTGRSQYNEKFKTRVTITADKSTSTAYMELSSLRSEDTAVYYCARWGLQPFAYWGQGTLVTVSS VL: EIVMTQSPATLSVSPGERATLSCKASQDVSTAVAWYQQKPGQAPRLLIYSASYRYTGIPARFSGSGSGTEFTLTISSLQSEDFAVYYCQQHYSTPWTFGGGTKVEIKR	Inhibition of B cell proliferation induced by soluble CD40L trimer, Average (IC50 ng/ml) [1]: 12.1 ng/mL; Kd [3]: 2.3 nM; koff [3]: 0.00073 s⁻¹; kon [3]: 310000 M⁻¹ s⁻¹; Kd [4]: 5.5 nM; koff [4]: 0.0034 s⁻¹; kon [4]: 630000 M⁻¹ s⁻¹
			2.2	0.00012	55000	ADX_Y1238.ZZ0-1 (antibody, V domains shown, Mouse anti-human-CD40 antibody) VH: QVQLQQSGAELVRPGTSVKVSCKASGYAFTNYLIEWVKQRPGQGLEWIGVINPGSGGTNYNEKFKGKATLTADKSSSTAYMQLSSLTSDDSAVYFCARSQLGRRFDYWGQGTTLTVSS VL: DIVMTQSHKFMSTSVGDRVSITCKASQDVRTGVAWYQQKPGQSPKLLIYSASYRNTGVPDRFTGSRSGTDFTFTISSVQAEDLAVYYCQQHYSPPYTFGGGTKLEIK	
			17	0.00023	14000	ADX_Y1264.ZZ0-1 (antibody, V domains shown, Mouse anti-human-CD40 antibody) VH: EVQLQQSGTVLARPGASVKMSCRASGYSFSSYWMHWVKQRPGQGLEWIGSINPGNSDAFYNQQFKGKAKLTAVTSASTAYMELSSLTNEDSAVYYCTRWGLPPFAYWGQGTLVTVSA VL: DIVMTQSHKFMSTSVGDRVSITCKASQDVSTAVAWYQQKPGQSPKLLIYSASYRYTGVPDRFTGSGSGTDFTFTISSVQAEDLAVYYCHQHYSTPWTFGGGTKLEIK	
			4	0.00021	52000	ADX_Y1260.ZZ0-1 (antibody, V domains shown, Mouse anti-human-CD40 antibody) VH: QVQLQQSGAELTKPGASVKMSCKASGYSFTSYWMHWVKQRPGQGLEWIGSINPSTGYTEDNQKFKDKATLTADKSSTTAYMQLSSLTSEDSAVYYCARWGLPPFAYWGQGTLVTVSA VL: DIVMTQSHKFMSTSVGDRVSITCKASQDVSTAVAWYQQKPGQSPKLLIYSASYRYTGVPDRFTGSGSGTDFTFTISSVQAEDLAVYYCQQHYSTPWTFGGGTKLEIK	
			1.4	0.00046	320000	ADX_Y1268.ZZ0-1 (antibody, V domains shown, Mouse anti-human-CD40 antibody) VH: QVQLQQPGAELVKPGASVRLSCKASGYAFTSYWMHWVKQRPGQGLEWIGQINPSNGRSQYNEKFKTMATLTVDKSSSTAYIQLSSLTSEDSAVYYCARWGLQPFAYWGQGTLVTVSA VL: DIVMTQSHKFMSTSVGDRVSITCKASQDVSTAVAWYQQKPGQSPKLLIYSASYRYTGVPDRFTGSGSGTDFTFTISSVQAEDLAVYYCQQHYSTPWTFGGGTKLEIK	
			6.6	0.0025	370000	ADX_Y1262.ZZ0-1 (antibody, V domains shown, Mouse anti-human-CD40 antibody) VH: QVQLQQSGAELAKPGSSVKMSCKASGYAFTSYWMHWVKQRPGQGLEWIGYINPTTGYSAYNQKFKDKATLTADKSSSTAYMQLNSLTSEDSAVYYCARWDPRPFAYWGQGTLVTVSA VL: DIVMTQSHKFMSTSVGDRVSITCKASQDVSTAVAWYQQKPGQSPKLLIYSASYRYTGVPDRFTGSGYGTDFTFTISSVQAEDLAVYYCQQHYSTPWTFGGGTKLEIK	
			120	0.0092	77000	ADX_Y1072.ZZ0-1 (antibody, V domains shown, Mouse anti-human-CD40 antibody) VH: QVQFQQSGAELARPGASVKLSCKASGYTFTSYWMQWVKQRPGQGLEWIGTIYPGDGDSRYNQKFKGKALLTADKSSSIAYMQLNSLASEDSAVYFCARFSLYDGYPYYFDYWGQGTTLTVSS VL: DVVMTQTPLSLPVSLGDQASISCRSSQSLVHRNGNTYLHWYLQKPGQSPKLLIYRVSNRFSGVPDRFSGSGSGTDFTLKISRVEAEDLGIYFCSQSTHFPYTFGGGTKLEIK	

— US20240124597A1 (Bristol-Myers Squibb, published 2024)
